In US20250223359A1:

Biological target: CD3-Fc
Assay: SPR (Biacore T200, 25 C); CD3-Fc captured on anti-hFc IgG1 CM5 chip, antibody injected in 1:2 dilution series; 1:1 binding model

Kd | Binder
0.016 µM | CD3hi anti-CD3 antibody (antibody, V domains shown) VH: EVQLVESGGGLVQPGGSLKLSCAASGFTFNTYAMNWVRQASGKGLEWVGRIRSKYNNYATYYADSVKDRFTISRDDSKSTLYLQMNSLKTEDTAVYYCVRHGNFGNSYVSWFAYWGQGTLVTVSS VL: QAVVTQEPSLTVSPGGTVTLTCRSSTGAVTTSNYANWVQQKPGQAPRGLIGGTNKRAPWTPARFSGSLLGDKAALTLSGAQPEDEAEYFCALWYSNLWVFGGGTKLTVL
0.03 µM | CD3med anti-CD3 antibody (antibody, V domains shown) VH: EVQLVESGGGLVQPGGSLKLSCAASGFTFNTYAMNWVRQASGKGLEWVGRIRSKYNNYATYYADSVKDRFTISRDDSKNTAYLQMNSLKTEDTAVYYCVRHGNFGNSYVSWFAHWGQGTLVTVSS VL: QAVVTQEPSLTVSPGGTVTLTCGSSTGAVTSSNYANWVQQKPGQAPRGLIGGTNKRAPWTPARFSGSLLGGKAALTLSGAQPEDEAEYYCALWYSNLWVFGGGTKLTVL
0.048 µM | CD3lo anti-CD3 antibody (antibody, V domains shown) VH: EVQLVESGGGLVQPGGSLKLSCAASGFTFNTYAMNWVRQASGKGLEWVGRIRSKYNNYATYYADSVKDRFTISRDDSKSTAYLQMNSLKTEDTAVYYCVRHGNFGNSYVSWFAYWGQGTLVTVSS VL: QAVVTQEPSLTVSPGGTVTLTCRSSTGAVTTSNYANWVQQKPGQAPRGLIGGTNKRAPWTPARFSGSLLGDKAALTLSGAQPEDEAEYFCALWYSNLWVFGGGTKLTVL
